Key:
[1] = biological target: MyrMA (myristoylated matrix) (HIV-1, UniProt P12493 2-132); assay: fluorescence anisotropy
[2] = biological target: MA (unmyristoylated matrix) (HIV-1, UniProt P12493 2-132); assay: fluorescence anisotropy

B1: FITC-Sel25 (structured_RNA)
RNA: GGACAGGAAUUAAUAGUAGCUGUCC
In the case of B1, the Kd [1] is reported as 813 ± 74 nM and the Kd [2] is reported as 1030 ± 80 nM.
